Assay results published in patent US20250084167A1 (ZENAS BIOPHARMA, published 2025).

Molecular target: T1, human CD19 (human, UniProt P15391 20-556)
T1 construct: CD19 on B cells of healthy subjects and patients (receptor occupancy in clinical studies); also called human B-cell restricted surface antigen CD19
T1 sequence: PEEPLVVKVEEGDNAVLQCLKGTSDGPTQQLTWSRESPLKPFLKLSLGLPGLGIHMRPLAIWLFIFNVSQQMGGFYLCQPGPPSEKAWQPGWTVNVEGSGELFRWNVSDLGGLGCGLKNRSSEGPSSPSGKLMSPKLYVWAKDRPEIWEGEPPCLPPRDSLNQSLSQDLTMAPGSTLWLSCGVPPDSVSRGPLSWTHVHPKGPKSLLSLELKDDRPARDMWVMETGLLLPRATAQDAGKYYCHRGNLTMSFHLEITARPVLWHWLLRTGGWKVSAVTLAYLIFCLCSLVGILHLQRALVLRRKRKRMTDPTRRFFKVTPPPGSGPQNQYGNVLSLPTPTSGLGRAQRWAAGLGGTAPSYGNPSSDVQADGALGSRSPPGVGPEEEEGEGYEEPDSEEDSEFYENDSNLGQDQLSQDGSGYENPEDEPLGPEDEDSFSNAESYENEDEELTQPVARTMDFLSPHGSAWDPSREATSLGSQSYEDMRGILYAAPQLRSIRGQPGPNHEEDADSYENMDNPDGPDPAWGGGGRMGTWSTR
Assay: population PK/PD model of CD19 receptor occupancy (direct response, sigmoidal Emax) against plasma obexelimab concentration, fitted to data of 4 clinical studies (healthy subjects, RA and IgG4-RD patients); in vivo plasma concentration for half-maximal CD19 receptor occupancy, population PK/PD model fit

B1: Obexelimab (antibody, human IgG1, kappa, V domains shown)
VH: EVQLVESGGGLVKPGGSLKLSCAASGYTFTSYVMHWVRQAPGKGLEWIGYINPYNDGTKYNEKFQGRVTISSDKSISTAYMELSSLRSEDTAMYYCARGTYYYGTRVFDYWGQGTLVTVSS
VL: DIVMTQSPATLSLSPGERATLSCRSSKSLQNVNGNTYLYWFQQKPGQSPQLLIYRMSNLNSGVPDRFSGSGSGTEFTLTISSLEPEDFAVYYCMQHLEYPITFGAGTKLEIKR
notes: Humanized IgG1 kappa; also called XmAb5871; anti-CD19 antibody
Question: B1 was tested. Which EC50 did it give?
Answer: The EC50 was 0.0745 µg/mL.
